The text below walks through data of patent US20180326085A1 (Merck KGaA, published 2018).

The target in test [1] is T1, biotinylated recombinant human c-MET ECD (HGFR extracellular domain) (human, UniProt P08581 25-932, biotinylated (sites not given)).
T1 construct: extracellular domain; also called human c-MET ECD-His
Briefly: HGF competition ELISA: HGF on the plate, biotinylated c-MET ECD pre-incubated with the antibody; blocked ligand HGF.

The target in test [2] is T2, c-MET on cells (human, UniProt P08581).
T2 construct: endogenous receptor on the cell surface; for A549 cells m4 is used; also called HGFR; on NCI-H441, EBC-1, A431, MKN-45, SK-MEL2 or HepG2 cells (cell line under assay)
In words: flow cytometry on NCI-H441 cells (express c-MET and EGFR), FITC anti-human Fc, n=3.

Test [3] concerns the target T3, c-MET (hepatocyte growth factor receptor) on A549 cells (human, UniProt P08581 25-1390).
T3 construct: whole, on cells; Endogenous receptor of A549 cells; phosphorylation read out in cell lysates; also called HGFR
Briefly: flow cytometry, A549 cells (c-MET+ EGFR++).

In test [4] the target is T2, c-MET on cells. Briefly: flow cytometry, SK-MEL2 cells (c-MET+ EGFR-). Background: A flow cytometer gives signals particle by particle.
The target in test [5] is T2, c-MET on cells. Briefly: flow cytometry, MKN-45 cells (c-MET+++ EGFR++).
Test [6] deals with T2, c-MET on cells. In words: flow cytometry, EBC-1 cells (c-MET+++ EGFR++).
Test [7] deals with T1, biotinylated recombinant human c-MET …. Briefly: BLI (Octet), antibody on anti-human Fc biosensors, soluble c-MET ECD as analyte.
Test [8] deals with T2, c-MET on cells. In words: flow cytometry, HepG2 cells (c-MET+ EGFR+).
Test [9] has as its target T2, c-MET on cells. In words: flow cytometry, A431 cells (c-MET+ EGFR+++).
Test [10] addresses T4, EGFR on cells (human, UniProt P00533).
T4 construct: endogenous receptor on the cell surface; for A549 cells m5 is used; also called on NCI-H441, EBC-1, A431, MKN-45, HepG2 or T47D cells (cell line under assay)
Briefly: flow cytometry on NCI-H441 cells (express c-MET and EGFR), FITC anti-human Fc, n=3.

Test [11] concerns the target T5, EGFR (epidermal growth factor receptor) on A549 cells (human, UniProt P00533 25-1210).
T5 construct: whole, on cells; Endogenous receptor of A549 cells; phosphorylation read out in cell lysates
Briefly: flow cytometry, A549 cells (c-MET+ EGFR++).

The target of test [12] is T4, EGFR on cells. In words: flow cytometry, MKN-45 cells (c-MET+++ EGFR++).
Test [13] concerns the target T6, EGFR (soluble extracellular domain) (human, UniProt P00533).
T6 construct: soluble extracellular domain; also called Human EGFR extracellular domain, R&D Systems 1095-ER
In words: BLI (Octet), antibody on anti-human Fc biosensors, soluble EGFR ECD as analyte. (Biolayer interferometry detects binding as a change in optical thickness at a sensor tip.)

Test [14] addresses T4, EGFR on cells. Briefly: flow cytometry, EBC-1 cells (c-MET+++ EGFR++).
Test [15] has as its target T4, EGFR on cells. Briefly: flow cytometry, HepG2 cells (c-MET+ EGFR+).
Test [16] deals with T4, EGFR on cells. Briefly: flow cytometry, A431 cells (c-MET+ EGFR+++).
Test [17] has as its target T7, c-MET and EGFR co-expressed on cells (human, UniProt P08581;P00533).
T7 construct: endogenous receptor on the cell surface; not a complex: two separate receptors on the same cell; used as target only for bispecific c-MET x EGFR molecules, whose cell staining cannot be split between the two arms; also called cells that carry both receptors: NCI-H441, EBC-1, A431, MKN-45, A549, HepG2 (cell line under assay)
In words: flow cytometry on NCI-H441 cells (express c-MET and EGFR), FITC anti-human Fc, n=3.

Test [18] concerns the target T7, c-MET and EGFR co-expressed on cells. Briefly: flow cytometry, A549 cells (c-MET+ EGFR++).
Test [19] shares this target. Briefly: flow cytometry, MKN-45 cells (c-MET+++ EGFR++).
Test [20] has the same target. In words: flow cytometry, EBC-1 cells (c-MET+++ EGFR++).
For test [21] the target is unchanged. In words: flow cytometry, HepG2 cells (c-MET+ EGFR+).
The target is the same in test [22]. In words: flow cytometry, A431 cells (c-MET+ EGFR+++).
The target of test [23] is T4, EGFR on cells. In words: flow cytometry at 300 nM on mixed EBC-1 and T47D (low EGFR, no c-MET) cells, anti-human Fc detection; T47D population.

B1: oa CS06 (antibody, V domains shown)
VH: QVQLQQSGAEVKKPGSSAKVSCKASGGTFSSNAISWVRQAPGQGLEWMGGIIPIFGTAIYAQKFQGRVTITADESTSTAYMELSSLRSEDTAVYYCARDQRGYYYYYYYGMDVWGQGTTVTVSS
VL: QLVLTQSPSVSVAPGKTARITCGGNNIRNVGVHWYQKKPGQAPILVVYDDDDRPSGVPERFSGSNSGNTATLTISRVEAGDEADYYCQVWDSATDQRVFGGGTKLTVLG
notes: one-armed (monovalent) anti-c-MET SEED molecule; also called one-armed CS06
One may read the EC50 (read off the curve) as the concentration giving half of the maximal effect. A word on the Kd: it is the concentration at which binding is half-saturated. A word on the koff: it is the rate constant with which the complex falls apart. Broadly, the kon is the second-order rate constant of association. Consider B1, for which the “IC50 (read off the curve)” value in test [1] is ~8 nM. Moreover, the “EC50 (read off the curve)” value in [2] was ~0.3 nM. Also, the “MFI at 100 nM” value turned out to be 147 in test [3]; 213 in test [4]; 1490 in test [5]; 2630 in test [6]; 296 in test [8]; 37 in test [9]. Besides, the Kd in test [7] is 0.19 nM. In addition, the koff in test [7] is 0.00021 s⁻¹. The kon in test [7] was determined as 1.1e+06 M⁻¹ s⁻¹.

B2: oa 225-H (antibody, V domains shown)
VH: EVQLVQSGAEVKKPGASVKVSCKASGFSLTNYGVHWMRQAPGQGLEWIGVIWSGGNTDYNTPFTSRVTITSDKSTSTAYMELSSLRSEDTAVYYCARALDYYDYEFAYWGQGTLVTVSS
VL: DIQMTQSPSSLSASVGDRVTITCRASQSIGTNIHWYQQKPGKAPKLLIKYASESISGVPSRFSGSGYGTDFTLTISSLQPEDVATYYCQQNNEWPNTFGQGTKVEIK
notes: one-armed (monovalent) anti-EGFR SEED molecule
In the case of B2, the “EC50 (read off the curve)” value in test [10] is ~0.4 nM. In addition, the “MFI at 100 nM” value in test [11] worked out at 184; in test [4], 20; in [12], 199; in [14] it was 287; in test [15] it was 53; in test [16], 2230. For the same molecule, the binding result in [4] is on record as “no binding (tested: 100 nM)”. Further, binding in test [13] was characterised by a dissociation constant (Kd) of 0.14 nM. For the same molecule, the koff in test [13] turned out to be 0.00049 s⁻¹. The same molecule showed a kon in test [13] of 3.6e+06 M⁻¹ s⁻¹.

B3: CS06x225-H (bispecific c-MET x EGFR SEEDbody) (bispecific antibody, V domains shown)
VH 1: QVQLQQSGAEVKKPGSSAKVSCKASGGTFSSNAISWVRQAPGQGLEWMGGIIPIFGTAIYAQKFQGRVTITADESTSTAYMELSSLRSEDTAVYYCARDQRGYYYYYYYGMDVWGQGTTVTVSS
VL 1: QLVLTQSPSVSVAPGKTARITCGGNNIRNVGVHWYQKKPGQAPILVVYDDDDRPSGVPERFSGSNSGNTATLTISRVEAGDEADYYCQVWDSATDQRVFGGGTKLTVLGQPKAG
VH 2: EVQLVQSGAEVKKPGASVKVSCKASGFSLTNYGVHWMRQAPGQGLEWIGVIWSGGNTDYNTPFTSRVTITSDKSTSTAYMELSSLRSEDTAVYYCARALDYYDYEFAYWGQGTLVTVSS
VL 2: DIQMTQSPSSLSASVGDRVTITCRASQSIGTNIHWYQQKPGKAPKLLIKYASESISGVPSRFSGSGYGTDFTLTISSLQPEDVATYYCQQNNEWPNTFGQGTKVEIK
notes: The rest is a SEEDbody: IgG1 hinge-CH2-SEED CH3 (AG/GA)
Turning to B3, in [17], the “EC50 (read off the curve)” value was ~0.3 nM. Further, the “MFI at 100 nM” value in test [18] is 292; in [4], 164; in test [19], 1550; in test [20], 1560; in test [21], 198; in [22] it was 1860. The Kd in test [13] and in test [7] was 0.12 nM in each case. The koff in test [13] and in test [7] was 0.00039 s⁻¹ in each case. Besides, the kon in test [13] and in [7] was 3.3e+06 M⁻¹ s⁻¹ in each case.

B4: B10v5x225-L (bispecific antibody, V domains shown)
VL (c-MET arm): EPVLTQPPSVSVAPGETATIPCGGDSLGSKIVHWYQQRPGQAPLLVVYDDAARPSGIPERFSGSKSGTTATLTISSVEAGDEADYFCQVYDYHSDVEVFGGGTKLTVLGQPKAA
VH (c-MET arm): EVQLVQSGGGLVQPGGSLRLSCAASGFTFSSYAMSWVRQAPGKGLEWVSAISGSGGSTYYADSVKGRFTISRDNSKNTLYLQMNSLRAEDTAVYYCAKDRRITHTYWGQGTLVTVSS
VL (EGFR arm): DIQMTQSPSSLSASVGDRVTITCRASQSIGTNIHWYQQKPGKAPKLLIKYASESISGVPSRFSGSGYGTDFTLTISSLQPEDVATYYCQQNNNWPTTFGQGTKVEIK
VH (EGFR arm): EVQLVQSGAEVKKPGASVKVSCKASGFSLTNYGVHWMRQAPGQGLEWIGVIWRGGNTDYNTPFTSRVTITSDKSTSTAYMELSSLRSEDTAVYYCARALTYYDYEFAYWGQGTLVTVSS
notes: c-MET x EGFR SEED bispecific
For B4, in test [23], the binding result is “binds”. Further, the “MFI at 100 nM” value was 249 in test [18]; 341 in test [4]; 1220 in test [19]; 2040 in test [20]; 451 in [21]; 847 in [22].

B5: B10v5x225-H (bispecific c-MET x EGFR SEEDbody) (bispecific antibody, V domains shown)
VH 1: not shown
VL 1: EPVLTQPPSVSVAPGETATIPCGGDSLGSKIVHWYQQRPGQAPLLVVYDDAARPSGIPERFSGSKSGTTATLTISSVEAGDEADYFCQVYDYHSDVEVFGGGTKLTVLGQPKAA
VH 2: EVQLVQSGAEVKKPGASVKVSCKASGFSLTNYGVHWMRQAPGQGLEWIGVIWSGGNTDYNTPFTSRVTITSDKSTSTAYMELSSLRSEDTAVYYCARALDYYDYEFAYWGQGTLVTVSS
VL 2: DIQMTQSPSSLSASVGDRVTITCRASQSIGTNIHWYQQKPGKAPKLLIKYASESISGVPSRFSGSGYGTDFTLTISSLQPEDVATYYCQQNNEWPNTFGQGTKVEIK
notes: hu225-H); SEEDbody format (IgG1 hinge-CH2-SEED CH3)
Take B5: in test [17], the “EC50 (read off the curve)” value was ~0.5 nM. The “MFI at 100 nM” value came to 335 in test [18]; 222 in test [4]; 1330 in [19]; 2060 in [20]; 352 in test [21]; 1760 in test [22]. Also, the results for the Kd in test [13] and in test [7] were 0.15 nM and 0.36 nM, respectively. The koff in test [13] amounted to 0.00053 s⁻¹; in test [7], 0.00015 s⁻¹. Further, the kon in test [13] is 3.5e+06 M⁻¹ s⁻¹; in test [7], 400000 M⁻¹ s⁻¹.

B6: oa B10v5 (antibody, V domains shown)
VH: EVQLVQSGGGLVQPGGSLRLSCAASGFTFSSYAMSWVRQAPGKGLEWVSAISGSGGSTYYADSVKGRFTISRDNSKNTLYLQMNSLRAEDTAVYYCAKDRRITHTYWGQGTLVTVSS
VL: EPVLTQPPSVSVAPGETATIPCGGDSLGSKIVHWYQQRPGQAPLLVVYDDAARPSGIPERFSGSKSGTTATLTISSVEAGDEADYFCQVYDYHSDVEVFGGGTKLTVLG
notes: one-armed (monovalent) anti-c-MET SEED molecule; also called one-armed B10v5
For the molecule B6, the “IC50 (read off the curve)” value in test [1] was ~6 nM. In test [2], the “EC50 (read off the curve)” value was ~1 nM. For the same molecule, the “MFI at 100 nM” value worked out at 91 in test [3]; 272 in [4]; 1500 in test [5]; 2310 in test [6]; 399 in test [8]; 49 in test [9]. The Kd in test [7] came to 0.38 nM. The koff in test [7] turned out to be 0.00016 s⁻¹. In addition, the kon in test [7] was found to be 400000 M⁻¹ s⁻¹.
